# Changes are numbered by the printed parent chain.
# T1: IL-10R2-Fc/His (UniProt Q08334 20-220, limits assumed)
# T1 sequence (looked up): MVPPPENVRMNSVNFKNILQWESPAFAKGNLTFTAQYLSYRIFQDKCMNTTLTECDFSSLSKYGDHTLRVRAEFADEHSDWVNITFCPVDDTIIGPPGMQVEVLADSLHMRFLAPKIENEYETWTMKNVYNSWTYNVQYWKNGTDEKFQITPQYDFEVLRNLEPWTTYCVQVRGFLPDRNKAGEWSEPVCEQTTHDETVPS
# T2: IL-10R1-Fc (UniProt Q13651 22-235, limits assumed)
# T2 sequence (looked up): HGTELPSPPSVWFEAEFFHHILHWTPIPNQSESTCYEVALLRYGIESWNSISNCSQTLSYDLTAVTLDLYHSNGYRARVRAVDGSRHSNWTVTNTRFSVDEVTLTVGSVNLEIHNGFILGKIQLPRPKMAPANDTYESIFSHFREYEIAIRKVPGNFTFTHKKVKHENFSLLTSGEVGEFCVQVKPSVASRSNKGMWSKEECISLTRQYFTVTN
# B1: IL-10 Arg24Cys-R4-20 (ligand, human, UniProt P22301 19-178, looked up)
# chain: SPGQGTQSENSCTHFPGNLPNMLCDLRDAFSRVKTFFQMKDQLDNLLLKESLLEDFKGYLGCQALSEMIQFYLEEVMPQAENQDPDIKAHVNSLGENLKTLRLRLRRCHRFLPCENKSKAVEQVKNAFNKLQEKGIYKAMSEFDIFINYIEAYMTMKIRN
# modifications: R4-20 on Cys 24
# notes: mature
# B2: IL-10 Arg24Cys-S48 (ligand, human, UniProt P22301 19-178, looked up)
# chain: B1 chain
# modifications: S48 on Cys 24
# notes: mature
# B3: IL-10 Arg32Cys-R4-7 (ligand, human, UniProt P22301 19-178, looked up)
# chain: B1 chain with C24R, R32C
# modifications: R4-7 on Cys 32
# notes: mature
# B4: IL-10 Arg104Cys-S48 (ligand, human, UniProt P22301 19-178, looked up)
# chain: B1 chain with C24R, R104C
# modifications: S48 on Cys 104
# notes: mature
# B5: IL-10 Arg107Cys-S48 (ligand, human, UniProt P22301 19-178, looked up)
# chain: B1 chain with C24R, R107C
# modifications: S48 on Cys 107
# notes: mature
# B6: IL-10 Phe15Cys-R4-8 (ligand, human, UniProt P22301 19-178, looked up)
# chain: B1 chain with F15C, C24R
# modifications: R4-8 on Cys 15
# notes: mature
# B7: IL-10 Ala29Cys-R4-5 (ligand, human, UniProt P22301 19-178, looked up)
# chain: B1 chain with C24R, A29C
# modifications: R4-5 on Cys 29
# notes: mature
# B8: IL-10 Ala29Cys-S48 (ligand, human, UniProt P22301 19-178, looked up)
# chain: B1 chain with C24R, A29C
# modifications: S48 on Cys 29
# notes: mature
# B9: IL-10 Ala89Cys-R4-1 (ligand, human, UniProt P22301 19-178, looked up)
# chain: B1 chain with C24R, A89C
# modifications: R4-1 on Cys 89
# notes: mature
# B10: IL-10 Ala89Cys-S48 (ligand, human, UniProt P22301 19-178, looked up)
# chain: B1 chain with C24R, A89C
# modifications: S48 on Cys 89
# notes: mature
# B11: IL-10 Arg102Cys-R4-20 (ligand, human, UniProt P22301 19-178, looked up)
# chain: B1 chain with C24R, R102C
# modifications: R4-20 on Cys 102
# notes: mature
# B12: IL-10 Arg102Cys-S48 (ligand, human, UniProt P22301 19-178, looked up)
# chain: B1 chain with C24R, R102C
# modifications: S48 on Cys 102
# notes: mature
# B13: IL-10 Arg106Cys-R4-7 (ligand, human, UniProt P22301 19-178, looked up)
# chain: B1 chain with C24R, R106C
# modifications: R4-7 on Cys 106
# notes: mature
# B14: IL-10 Arg106Cys-S48 (ligand, human, UniProt P22301 19-178, looked up)
# chain: B1 chain with C24R, R106C
# modifications: S48 on Cys 106
# notes: mature
# B15: IL-10 Asn92Cys-R4-18 (ligand, human, UniProt P22301 19-178, looked up)
# chain: B1 chain with C24R, N92C
# modifications: R4-18 on Cys 92
# notes: mature
# B16: IL-10 Asn92Cys-S48 (ligand, human, UniProt P22301 19-178, looked up)
# chain: B1 chain with C24R, N92C
# modifications: S48 on Cys 92
# notes: mature
# B17: IL-10 Asn126Cys-R4-18 (ligand, human, UniProt P22301 19-178, looked up)
# chain: B1 chain with C24R, N126C
# modifications: R4-18 on Cys 126
# notes: mature
# B18: IL-10 Asn126Cys-S48 (ligand, human, UniProt P22301 19-178, looked up)
# chain: B1 chain with C24R, N126C
# modifications: S48 on Cys 126
# notes: mature
# B19: IL-10 Asp25Cys-R4-11 (ligand, human, UniProt P22301 19-178, looked up)
# chain: B1 chain with C24R, D25C
# modifications: R4-11 on Cys 25
# notes: mature
# B20: IL-10 Asp86Cys-R4-11 (ligand, human, UniProt P22301 19-178, looked up)
# chain: B1 chain with C24R, D86C
# modifications: R4-11 on Cys 86
# notes: mature
# B21: IL-10 Asp86Cys-S48 (ligand, human, UniProt P22301 19-178, looked up)
# chain: B1 chain with C24R, D86C
# modifications: S48 on Cys 86
# notes: mature
# B22: IL-10 Gln123Cys-R4-19 (ligand, human, UniProt P22301 19-178, looked up)
# chain: B1 chain with C24R, Q123C
# modifications: R4-19 on Cys 123
# notes: mature
# B23: IL-10 Gln123Cys-S48 (ligand, human, UniProt P22301 19-178, looked up)
# chain: B1 chain with C24R, Q123C
# modifications: S48 on Cys 123
# notes: mature
# B24: IL-10 Glu81Cys-R4-12 (ligand, human, UniProt P22301 19-178, looked up)
# chain: B1 chain with C24R, E81C
# modifications: R4-12 on Cys 81
# notes: mature
# B25: IL-10 Glu81Cys-S48 (ligand, human, UniProt P22301 19-178, looked up)
# chain: B1 chain with C24R, E81C
# modifications: S48 on Cys 81
# notes: mature
# B26: IL-10 Glu96Cys-R4-12 (ligand, human, UniProt P22301 19-178, looked up)
# chain: B1 chain with C24R, E96C
# modifications: R4-12 on Cys 96
# notes: mature
# B27: IL-10 Glu96Cys-S48 (ligand, human, UniProt P22301 19-178, looked up)
# chain: B1 chain with C24R, E96C
# modifications: S48 on Cys 96
# notes: mature
# B28: IL-10 Glu122Cys-R4-12 (ligand, human, UniProt P22301 19-178, looked up)
# chain: B1 chain with C24R, E122C
# modifications: R4-12 on Cys 122
# notes: mature
# B29: IL-10 Glu122Cys-S48 (ligand, human, UniProt P22301 19-178, looked up)
# chain: B1 chain with C24R, E122C
# modifications: S48 on Cys 122
# notes: mature
# B30: IL-10 Ile87Cys-R4-6 (ligand, human, UniProt P22301 19-178, looked up)
# chain: B1 chain with C24R, I87C
# modifications: R4-6 on Cys 87
# notes: mature
# B31: IL-10 Ile87Cys-S48 (ligand, human, UniProt P22301 19-178, looked up)
# chain: B1 chain with C24R, I87C
# modifications: S48 on Cys 87
# notes: mature
# B32: IL-10 Leu101Cys-R4-6 (ligand, human, UniProt P22301 19-178, looked up)
# chain: B1 chain with C24R, L101C
# modifications: R4-6 on Cys 101
# notes: mature
# B33: IL-10 Leu101Cys-S48 (ligand, human, UniProt P22301 19-178, looked up)
# chain: B1 chain with C24R, L101C
# modifications: S48 on Cys 101
# notes: mature
# B34: IL-10 Leu103Cys-R4-6 (ligand, human, UniProt P22301 19-178, looked up)
# chain: B1 chain with C24R, L103C
# modifications: R4-6 on Cys 103
# notes: mature
# B35: IL-10 Leu103Cys-S48 (ligand, human, UniProt P22301 19-178, looked up)
# chain: B1 chain with C24R, L103C
# modifications: S48 on Cys 103
# notes: mature
# B36: IL-10 Lys88Cys-R4-7 (ligand, human, UniProt P22301 19-178, looked up)
# chain: B1 chain with C24R, K88C
# modifications: R4-7 on Cys 88
# notes: mature
# B37: IL-10 Lys88Cys-S48 (ligand, human, UniProt P22301 19-178, looked up)
# chain: B1 chain with C24R, K88C
# modifications: S48 on Cys 88
# notes: mature
# B38: IL-10 Lys99Cys-R4-7 (ligand, human, UniProt P22301 19-178, looked up)
# chain: B1 chain with C24R, K99C
# modifications: R4-7 on Cys 99
# notes: mature
# B39: IL-10 Lys99Cys-S48 (ligand, human, UniProt P22301 19-178, looked up)
# chain: B1 chain with C24R, K99C
# modifications: S48 on Cys 99
# notes: mature
# B40: IL-10 Phe36Cys-R4-8 (ligand, human, UniProt P22301 19-178, looked up)
# chain: B1 chain with C24R, F36C
# modifications: R4-8 on Cys 36
# notes: mature
# B41: IL-10 Phe36Cys-S48 (ligand, human, UniProt P22301 19-178, looked up)
# chain: B1 chain with C24R, F36C
# modifications: S48 on Cys 36
# notes: mature
# B42: IL-10 Thr35Cys-R4-5 (ligand, human, UniProt P22301 19-178, looked up)
# chain: B1 chain with C24R, T35C
# modifications: R4-5 on Cys 35
# notes: mature
# B43: IL-10 Val33Cys-R4-7 (ligand, human, UniProt P22301 19-178, looked up)
# chain: B1 chain with C24R, V33C
# modifications: R4-7 on Cys 33
# notes: mature
# B44: IL-10 Val33Cys-S48 (ligand, human, UniProt P22301 19-178, looked up)
# chain: B1 chain with C24R, V33C
# modifications: S48 on Cys 33
# notes: mature
# B45: IL-10 Phe15Cys-S48 (ligand, human, UniProt P22301 19-178, looked up)
# chain: B1 chain with F15C, C24R
# modifications: S48 on Cys 15
# notes: mature
# B46: IL-10 Tyr137Cys-S48 (ligand, human, UniProt P22301 19-178, looked up)
# chain: B1 chain with C24R, Y137C
# modifications: S48 on Cys 137
# notes: mature
# B47: IL-10 Tyr149Cys-R4-4 (ligand, human, UniProt P22301 19-178, looked up)
# chain: B1 chain with C24R, Y149C
# modifications: R4-4 on Cys 149
# notes: mature
# B48: IL-10 Tyr149Cys-S48 (ligand, human, UniProt P22301 19-178, looked up)
# chain: B1 chain with C24R, Y149C
# modifications: S48 on Cys 149
# notes: mature
# B49: IL-10 Val91Cys-R4-5 (ligand, human, UniProt P22301 19-178, looked up)
# chain: B1 chain with C24R, V91C
# modifications: R4-5 on Cys 91
# notes: mature
# B50: IL-10 Val91Cys-S48 (ligand, human, UniProt P22301 19-178, looked up)
# chain: B1 chain with C24R, V91C
# modifications: S48 on Cys 91
# notes: mature
# B51: IL-10 Thr6Cys-S48 (ligand, human, UniProt P22301 19-178, looked up)
# chain: B1 chain with T6C, C24R
# modifications: S48 on Cys 6
# notes: mature
# Molecular target: T1, IL-10R2-Fc/His
# Assay: ELISA, IL-10R2-Fc/His coated
Binder,Binding recovery (>60%) [%],Decreased fold of binding to ligand after Conjugating with S48 [fold]
B1,98.1,
B2,,9
B3,89.6,
B4,,6
B5,,5
B6,90,
B7,78,
B8,,3
B9,78.7,
B10,,5
B11,99,
B12,,3
B13,99.6,
B14,,3
B15,86.4,
B16,,3
B17,99,
B18,,3
B19,91.5,
B20,81,
B21,,3
B22,96.5,
B23,,3

Binder,Binding recovery (>60%) [%],Decreased fold of binding to ligand after Conjugating with S48 [fold]
B24,93.6,
B25,,3
B26,98,
B27,,3
B28,99.8,
B29,,3
B30,95.7,
B31,,4
B32,91,
B33,,3
B34,89.4,
B35,,3
B36,99,
B37,,3
B38,117,
B39,,3
B40,79.6,
B41,,3
B42,123,
B43,91.4,
B44,,3
B45,,3

# Molecular target: T2, IL-10R1-Fc
# Assay: ELISA, IL-10R1-Fc coated
Binder,Binding recovery (>60%) [%],Decreased fold of binding to ligand after Conjugating with S48 [fold]
B1,90,
B2,,33
B3,90.4,
B4,,3
B5,,3
B46,,5
B47,115,
B48,,5
B49,97.2,
B50,,3
B51,,3

# From US20230158141A1 (YAFEI SHANGHAI BIOLOG MEDICINE SCIENCE AND TECHNOLOGY, published 2023)
